Results taken from patent publication US20240270845A1 (ZELARION MALTA, published 2024).

T1: Recombinant truncated human CD2 (human, UniProt P06729 25-209, limits assumed)
T1 construct: Bought; also called LFA2
T1 sequence (looked up): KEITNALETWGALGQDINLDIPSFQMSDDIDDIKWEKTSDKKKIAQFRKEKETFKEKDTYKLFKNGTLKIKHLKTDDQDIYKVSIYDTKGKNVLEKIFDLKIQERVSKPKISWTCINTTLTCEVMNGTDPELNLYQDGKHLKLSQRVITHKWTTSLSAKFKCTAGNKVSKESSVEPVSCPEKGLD


Target: T1, Recombinant truncated human CD2
Assay: SPR (Biacore T200), IgG amine-coupled to CM5 chip, CD2 injected up to 5 nM, two-state model, 25 °C
Procedure: All interaction experiments were performed at 25° C. Recombinant truncated human CD2 (Sino Biological, Beijing, China) was diluted in two-fold dilution series with the highest concentration being 5 nM and injected for 180 seconds over immobilized IgG. After 15 minutes of dissociation, the sensor chip was regenerated by 30 seconds injection of 10 mM glycine pH 1.7. Sensorgrams from reference surfaces and blank injections were subtracted from the raw data prior to data analysis. A two-state (induced fit) interaction model was fitted to the data using T200 evaluation software v3.0 (Cytiva Life Sciences/Biacore, Uppsala, Sweden) to determine kinetic rate constants and affinities.

| Binder | Kd [nM] |
| --- | --- |
| Siplizumab (humanized anti-CD2 IgG1κ) (antibody, V domains shown, also called MEDI-507; anti-CD2 Ab1) VH: QVQLVQSGAEVQRPGASVKVSCKASGYIFTEYYMYWVRQAPGQGLELVGRIDPEDGSIDYVEKFKKKVTLTADTSSSTAYMELSSLTSDDTAVYYCARGKFNYRFAYWGQGTLVTVSS VL: DVVMTQSPPSLLVTLGQPASISCRSSQSLLHSSGNTYLNWLLQRPGQSPQPLIYLVSKLESGVPDRFSGSGSGTDFTLKISGVEAEDVGVYYCMQFTHYPYTFGQGTKLEIK | 1.2 |
| CD2-binding molecule 2 (Fc-silent (FcS) anti-CD2 IgG1) (antibody, V domains shown, IgG1 with LALA-PG mutations at equivalent sites in siplizumab; made in CHO-K1 cells; also called Fc-silent Siplizumab) VH: QVQLVQSGAEVQRPGASVKVSCKASGYIFTEYYMYWVRQAPGQGLELVGRIDPEDGSIDYVEKFKKKVTLTADTSSSTAYMELSSLTSDDTAVYYCARGKFNYRFAYWGQGTLVTVSS VL: DVVMTQSPPSLLVTLGQPASISCRSSQSLLHSSGNTYLNWLLQRPGQSPQPLIYLVSKLESGVPDRFSGSGSGTDFTLKISGVEAEDVGVYYCMQFTHYPYTFGQGTKLEIK | 1.5 |
| CD2-binding molecule 4 (FcS anti-CD2 IgG4) (antibody, V domains shown, Standard IgG4 framework with S228P, L235E, P329G; made in CHO-K1 cells) VH: QVQLVQSGAEVQRPGASVKVSCKASGYIFTEYYMYWVRQAPGQGLELVGRIDPEDGSIDYVEKFKKKVTLTADTSSSTAYMELSSLTSDDTAVYYCARGKFNYRFAYWGQGTLVTVSS VL: DVVMTQSPPSLLVTLGQPASISCRSSQSLLHSSGNTYLNWLLQRPGQSPQPLIYLVSKLESGVPDRFSGSGSGTDFTLKISGVEAEDVGVYYCMQFTHYPYTFGQGTKLEIK | 1.4 |
| CD2-binding molecule 3 (FcS anti-CD2 IgG2) (antibody, V domains shown, Standard IgG2 framework with V234A, G237A, P238S, H268A, V309L, A330S, P331S; made in CHO-K1 cells) VH: QVQLVQSGAEVQRPGASVKVSCKASGYIFTEYYMYWVRQAPGQGLELVGRIDPEDGSIDYVEKFKKKVTLTADTSSSTAYMELSSLTSDDTAVYYCARGKFNYRFAYWGQGTLVTVSS VL: DVVMTQSPPSLLVTLGQPASISCRSSQSLLHSSGNTYLNWLLQRPGQSPQPLIYLVSKLESGVPDRFSGSGSGTDFTLKISGVEAEDVGVYYCMQFTHYPYTFGQGTKLEIK | 0.9 |
| CD2-binding molecule 1 (a deglycosylated CD2-binding molecule) (antibody, V domains shown, Fc N-glycan removed with EndoS2 (GlycINATOR), produced with GlycINATOR (EndoS2)) VH: QVQLVQSGAEVQRPGASVKVSCKASGYIFTEYYMYWVRQAPGQGLELVGRIDPEDGSIDYVEKFKKKVTLTADTSSSTAYMELSSLTSDDTAVYYCARGKFNYRFAYWGQGTLVTVSS VL: DVVMTQSPPSLLVTLGQPASISCRSSQSLLHSSGNTYLNWLLQRPGQSPQPLIYLVSKLESGVPDRFSGSGSGTDFTLKISGVEAEDVGVYYCMQFTHYPYTFGQGTKLEIK | 1.2 |
